Three substances from patent publication US20070036810A1, “Cyclic amp response element activator proteins and uses related thereto” (priority 2003, published 2007) can be followed below.

This assay concerns the target GAL4-CREB fusion protein (Stratagene): CREB activation domain fused with the yeast GAL4 DNA binding domain (amino acids 1-147) (yeast) (UniProt P04386). Briefly: cell-based or functional assay.

The substance “human CREAP1 (CRE activating protein 1), full length (from UniProt Q6UUV9 1-634)” had a Fold Induction (luciferase from the genome-integrated pFR-Luc/UAS-Luc reporter in HLR cells, GAL4-CREB co-transfected with CREAP1, normalized to pCMV-BD vector) of 233 fold.
On to “human CREAP2, full length (from UniProt Q53ET0 1-693)”, for which the Fold Induction (luciferase from the genome-integrated pFR-Luc/UAS-Luc reporter in HLR cells, GAL4-CREB co-transfected with CREAP2, normalized to pCMV-BD vector) worked out at 178 fold.
“human CREAP3, full length (from UniProt Q6UUV7 1-619)” registered a Fold Induction (luciferase from the genome-integrated pFR-Luc/UAS-Luc reporter in HLR cells, GAL4-CREB co-transfected with CREAP3, normalized to pCMV-BD vector) of 448 fold.
